Experimental data as given in patent US20160046728.

T1: Ir-CPI (Ixodes ricinus Contact Phase Inhibitor), recombinant
T1 chain: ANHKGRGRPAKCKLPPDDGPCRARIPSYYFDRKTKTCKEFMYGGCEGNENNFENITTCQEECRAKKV


Target: T1, Ir-CPI (Ixodes ricinus Contact Phase …)

Protein	amidolytic activity on chromogenic substrate (protease:Ir-CPI 1:5)	activation of factor XI into factor XIa by factor XIIa (reconstituted system, purified factors, chromogenic substrate)	activation of prekallikrein into kallikrein by factor XIIa (reconstituted system, purified factors, chromogenic substrate)
plasmin (protein) KVYLSECKTGNGKNYRGTMSKTKNGITCQKWSSTSPHRPRFSPATHPSEGLEENYCRNPDNDPQGPWCYTTDPEKRYDYCDILECEEECMHCSGENYDGKISKTMSGLECQAWDSQSPHAHGYIPSKFPNKNLKKNYCRNPDRELRPWCFTTDPNKRWELCDIPRCTTPPPSSGPTYQCLKGTGENYRGNVAVTVSGHTCQHWSAQTPHTHNRTPENFPCKNLDENYCRNPDGKRAPWCHTTNSQVRWEYCKIPSCDSSPVSTEQLAPTAPPELTPVVQDCYHGDGQSYRGTSSTTTTGKKCQSWSSMTPHRHQKTPENYPNAGLTMNYCRNPDADKGPWCFTTDPSVRWEYCNLKKCSGTEASVVAPPPVVLLPDVETPSEEDCMFGNGKGYRGKRATTVTGTPCQDWAAQEPHRHSIFTPETNPRAGLEKNYCRNPDGDVGGPWCYTTNPRKLYDYCDVPQCAAPSFDCGKPQVEPKKCPGRVVGGCVAHPHSWPWQVSLRTRFGMHFCGGTLISPEWVLTAAHCLEKSPRPSSYKVILGAHQEVNLEPHVQEIEVSRLFLEPTRKDIALLKLSSPAVITDKVIPACLPSPNYVVADRTECFITGWGETQGTFGAGLLKEAQLPVIENKVCNRYEFLNGRVQSTELCAGHLAGGTDSCQGDSGGPLVCFEKDKYILQGVTSWGLGCARPNKPGVYVRVSRFVTWIEGVMRNN	The results obtained did not show any effect of Ir-CPI protein on the amidolytic activity of these factors	–	–
t-PA (protein) SYQVICRDEKTQMIYQQHQSWLRPVLRSNRVEYCWCNSGRAQCHSVPVKSCSEPRCFNGGTCQQALYFSDFVCQCPEGFAGKCCEIDTRATCYEDQGISYRGTWSTAESGAECTNWNSSALAQKPYSGRRPDAIRLGLGNHNYCRNPDRDSKPWCYVFKAGKYSSEFCSTPACSEGNSDCYFGNGSAYRGTHSLTESGASCLPWNSMILIGKVYTAQNPSAQALGLGKHNYCRNPDGDAKPWCHVLKNRRLTWEYCDVPSCSTCGLRQYSQPQFRIKGGLFADIASHPWQAAIFAKHRRSPGERFLCGGILISSCWILSAAHCFQERFPPHHLTVILGRTYRVVPGEEEQKFEVEKYIVHKEFDDDTYDNDIALLQLKSDSSRCAQESSVVRTVCLPPADLQLPDWTECELSGYGKHEALSPFYSERLKEAHVRLYPSSRCTSQHLLNRTVTDNMLCAGDTRSGGPQANLHDACQGDSGGPLVCLNDGRMTLVGIISWGLGCGQKDVPGVYTKVTNYLDWIRDNMRP	The results obtained did not show any effect of Ir-CPI protein on the amidolytic activity of these factors	–	–
factor VIIa (protein) ANAFLEELRPGSLERECKEEQCSFEEAREIFKDAERTKLFWISYSDGDQCASSPCQNGGSCKDQLQSYICFCLPAFEGRNCETHKDDQLICVNENGGCEQYCSDHTGTKRSCRCHEGYSLLADGVSCTPTVEYPCGKIPILEKRNASKPQGRIVGGKVCPKGECPWQVLLLVNGAQLCGGTLINTIWVVSAAHCFDKIKNWRNLIAVLGEHDLSEHDGDEQSRRVAQVIIPSTYVPGTTNHDIALLRLHQPVVLTDHVVPLCLPERTFSERTLAFVRFSLVSGWGQLLDRGATALELMVLNVPRLMTQDCLQQSRKVGDSPNITEYMFCAGYSDGSKDSCKGDSGGPHATHYRGTWYLTGIVSWGQGCATVGHFGVYTRVSQYIEWLQKLMRSEPRPGVLLRAPFP	The results obtained did not show any effect of Ir-CPI protein on the amidolytic activity of these factors	–	–
factor Xa (protein) chain 1: ANSFLEEMKKGHLERECMEETCSYEEAREVFEDSDKTNEFWNKYKDGDQCETSPCQNQGKCKDGLGEYTCTCLEGFEGKNCELFTRKLCSLDNGDCDQFCHEEQNSVVCSCARGYTLADNGKACIPTGPYPCGKQTLER chain 2: IVGGQECKDGECPWQALLINEENEGFCGGTILSEFYILTAAHCLYQAKRFKVRVGDRNTEQEEGGEAVHEVEVVIKHNRFTKETYDFDIAVLRLKTPITFRMNVAPACLPERDWAESTLMTQKTGIVSGFGRTHEKGRQSTRLKMLEVPYVDRNSCKLSSSFIITQNMFCAGYDTKQEDACQGDSGGPHVTRFKDTYFVTGIVSWGEGCARKGKYGIYTKVTAFLKWIDRSMKTRGLPKAKSHAPEVITSSPLK	The results obtained did not show any effect of Ir-CPI protein on the amidolytic activity of these factors	–	–
factor XIIa (protein) IPPWEAPKEHKYKAEEHTVVLTVTGEPCHFPFQYHRQLYHKCTHKGRPGPQPWCATTPNFDQDQRWGYCLEPKKVKDHCSKHSPCQKGGTCVNMPSGPHCLCPQHLTGNHCQKEKCFEPQLLRFFHKNEIWYRTEQAAVARCQCKGPDAHCQRLASQACRTNPCLHGGRCLEVEGHRLCHCPVGYTGAFCDVDTKASCYDGRGLSYRGLARTTLSGAPCQPWASEATYRNVTAEQARNWGLGGHAFCRNPDNDIRPWCFVLNRDRLSWEYCDLAQCQTPTQAAPPTPVSPRLHVPLMPAQPAPPKPQPTTRTPPQSQTPGALPAKREQPPSLTRNGPLSCGQRLRKSLSSMTRVVGGLVALRGAHPYIAALYWGHSFCAGSLIAPCWVLTAAHCLQDRPAPEDLTVVLGQERRNHSCEPCQTLAVRSYRLHEAFSPVSYQHDLALLRLQEDADGSCALLSPYVQPVCLPSGAARPSETTLCQVAGWGHQFEGAEEYASFLQEAQVPFLSLERCSAPDVHGSSILPGMLCAGFLEGGTDACQGDSGGPLVCEDQAAERRLTLQGIISWGSGCGDRNKPGVYTDVAYYLAWIREHTVS	The results obtained did not show any effect of Ir-CPI protein on the amidolytic activity of these factors	Ir-CPI inhibits ... the activation of factor XI into factor XIa by factor XIIa	Ir-CPI inhibits the activation of prekallikrein into kallikrein by factor XIIa
